For orientation: Kd means the constant that tells how readily two partners part at equilibrium.

This assay concerns the target T1, Recombinant human TRB3 (tribbles homolog 3) (human, UniProt Q96RU7 1-358).
T1 construct: pseudokinase tribbles homolog 3 (TRB3), human, recombinant; as I recall, the catalogue suffix H09B stands for a His and GST tagged protein made in baculovirus-infected insect cells (surmise); also called TRB3 protein; human TRB3 protein; source: bought: Sino Biological (10731-H09B)
T1 sequence (looked up): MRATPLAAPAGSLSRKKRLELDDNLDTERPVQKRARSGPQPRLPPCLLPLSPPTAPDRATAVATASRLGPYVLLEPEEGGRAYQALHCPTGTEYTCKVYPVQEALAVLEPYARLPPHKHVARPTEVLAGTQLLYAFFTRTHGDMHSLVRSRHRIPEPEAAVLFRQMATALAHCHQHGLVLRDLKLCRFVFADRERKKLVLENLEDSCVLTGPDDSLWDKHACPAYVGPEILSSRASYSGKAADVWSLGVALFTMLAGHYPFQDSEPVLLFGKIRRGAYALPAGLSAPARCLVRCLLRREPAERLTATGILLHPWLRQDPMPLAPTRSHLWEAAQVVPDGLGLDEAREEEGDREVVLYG
Put plainly: MST; Monolith NT.115; Ac-GFFY-A2 or A2 against human TRB3 protein or BSA (negative control); which partner was labelled is not told. Particulars: both partners purified.

B1: A2 peptide (TRB3-binding peptide fragment derived from p62) (peptide)
peptide: GGWLTRLLQTK
notes: also called non-self-assembling peptide A2; source: synthetic peptide (SPPS, purified by HPLC)
B1: the Kd was ~3.21 µM.

Source of the values: paper PMC11267363, “Supramolecular Nanofibers Ameliorate Bleomycin‐Induced Pulmonary Fibrosis by Restoring Autophagy” (Advanced Science, 2024).
